By EC50 is commonly meant the concentration at which the effect is half-maximal.

The values that follow come from patent US20220387578A1.

Test [1] has as its target H5 HA A/Indonesia/05/2005 (H5N1), recombinant (influenza A virus).
The target of test [2] is H12 HA A/duck/Alberta/60/1976, recombinant (influenza A virus).
The target of test [3] is H14 HA A/mallard duck/Astrakhan/263/1982, recombinant (influenza A virus).
Test [4] concerns the target H15 HA A/shearwater/Western Australia/2576/1979, recombinant (influenza A virus).
In test [5] the target is H7 HA A/Shanghai/2/2013 (H7N9), recombinant uncleaved trimer (influenza A virus).
The target in test [6] is H2 HA A/Singapore/1/1957, recombinant soluble trimer (influenza A virus).
The target of test [7] is H9 HA A/Hong Kong/1073/99, recombinant (influenza A virus).
The target in test [8] is H3 HA A/Hong Kong/1/1968 (H3N2), recombinant soluble trimer (influenza A virus) (UniProt Q91MA7).

For “rFluA-20 heavy chain mutant C101A (antibody)”, the EC50 relative to wild type rFluA-20 in test [1], in test [3], in test [5] and in test [7] was over 100 fold throughout. Moreover, the EC50 in test [2] worked out at 0.09 µg/mL; in test [4] it was 0.11 µg/mL; in test [6], 0.44 µg/mL; in test [8] it was 0.13 µg/mL.
Consider “rFluA-20 light chain mutant N53A (antibody)”, for which the EC50 relative to wild type rFluA-20 in test [1] and in test [3] was over 100 fold each time. Moreover, the half-maximal effective concentration (EC50) in test [2] amounted to 0.03 µg/mL; in test [4], 0.06 µg/mL; in test [5] it was 0.87 µg/mL; in test [6], 0.16 µg/mL; in test [7] it was 0.17 µg/mL.
In the case of “rFluA-20 light chain mutant Q55A (antibody)”, the EC50 relative to wild type rFluA-20 in test [2] and in test [4] was over 100 fold in each case.
